Laboratory results from patent US20250298041A1 (published 2025).
Blank lines part the entries; values can stand above or below the binder they belong to.

Columns and labels:
[1] = biological target: T1, Plasma-derived VWF (pdVWF, Alphanate) (human, UniProt P04275 764-2813); assay: ELISA: binding of pdVWF (0.1 µg/ml) to immobilised LBD-WT induced by a titration of the nanobody; EC50 of nanobody-induced binding of pdVWF to immobilized LBD
T1 construct: Commercial multimeric VWF concentrate; also called plasma-purified VWF; full-length VWF

[2] = biological target: T2, recombinant AIM-A1 protein (human VWF residues 1238-1493) (human, multiple O-linked sialylated core 1 glycans (produced from transfected HEK293F cells)); assay: biolayer interferometry
T2 construct: Any tags are as in that entry; also called glycosylated AIM-A1; human VWF AIM-A1 protein

[3] = biological target: T2, recombinant AIM-A1 protein (human VWF …); assay: method not given; nanobody from E. coli on AIM-A1
[4] = biological target: plasma VWF (normal pooled human plasma) (human, UniProt P04275 764-2813); assay: cell-based or functional assay
[5] = biological target: T2, recombinant AIM-A1 protein (human VWF …); assay: apparent affinity, method not named; glycosylated AIM-A1 from HEK293F cells; glycosylated AIM-A1 from HEK293F cells; apparent affinity
[6] = biological target: T1, Plasma-derived VWF (pdVWF, Alphanate); assay: ELISA, plate coated with 100 nM nanobody, pdVWF titrated; apparent affinity, hyperbolic fit; apparent Kd of direct binding to pdVWF
[7] = biological target: T1, Plasma-derived VWF (pdVWF, Alphanate); assay: method not stated; monomeric recombinant VHH81; plasma-derived VWF
purified VWF = biological target: T3, purified VWF (UniProt P04275 764-2813, limits assumed); assay: method not stated; monomeric recombinant VHH81; purified VWF
T3 construct: It may be a recombinant fragment

B2: Cd1C11 (VHH)
VHH: QVQLVESGGGLVQTGGSLRLSCAASGRTVSHYSVGWFRQAPGKERVFVGAINWSGDKAYYVGSVKGRSTIRRDNAKNTVYLQMNSLKPEDTAVYYCATRRGLYYEGTDYSRKDEYDYWGQGTQVTVSS
notes: Llama nanobody produced in E. coli with a C-terminal His tag; also called 6C11
EC50 [1]: 215 nM
Kd [2]: 29 nM
Kd [3]: 13.5 nM
EC50 of extent of platelet aggregation as a function of nanobody concentration [4]: ~100 nM
EC50 of platelet aggregation in stirred human platelet rich plasma [4]: ~100 nM
Kd [6]: 3.68 nM

B4: VHH81 (VHH)
VHH: EVQLVESGGGLVQPGGSLRLSCAASGRITSYNPMGWFRQAPGKGRELVAAISRTGGSTYYPDSVEGRFTISRDNAKRMVYLQMNSLRAEDTAVYYCAAAGVRAEDGRVRTLPSEYTFWGQGTQVTVSS
notes: Monomeric recombinant VHH81 produced in bacteria; The tags are not included here; also called PMP12A2h1; mono ISVD of caplacizumab
Kd [7]: ~20 nM
Kd (purified VWF): ~20 nM

Continued, values first:

EC50 [1]: 42 nM
Kd [2]: 76 nM
Kd [3]: 31 nM
EC50 of extent of platelet aggregation as a function of nanobody concentration [4]: ~100 nM
EC50 of platelet aggregation in stirred human platelet rich plasma [4]: ~57 nM
Kd [5]: ~10 nM
Kd [6]: 1.12 nM
B1: Cd1D12 (VHH)
VHH: QVQLVESGGGLVQPGGSLRLSCAASGFTLDDYAIGWFRQVPGKERTFVGAINWSGTKAYYAGSVKGRSTVRRDNAKNTVYLQMNSLKPEDTAVYYCATHRGLHYGGINYSQKDEYDYWGQGTQVTVSS
notes: Llama nanobody produced in E. coli with a C-terminal His tag; also called 6D12

EC50 [1]: 163 nM
Kd [3]: 120 nM
EC50 of platelet aggregation in stirred human platelet rich plasma [4]: ~167 nM
Kd [6]: 5.4 nM
B3: Cd1C4 (VHH)
VHH: QVQLVESGGGLVQTGGSLTLSCAASGRAFSQYSVGWFRQAPGKERTFVAAINWSGTKAYYAGSVKGRSTISRDRAKTTVFLQMNSLKPEDTAVYYCATHRGLYYEGTNYSQKDEYDYWGQGTQVTVSS
notes: Llama nanobody produced in E. coli with a C-terminal His tag; also called 6C4
